Patent publication US20250388696A1 (NAVIGO PROTEINS, published 2025)
Changes are numbered by the printed parent chain. Values belong to the binder of their own block, whether it stands above or below them.

Assays:
[1] = target: T1, Her2-Fc (human, UniProt P04626 23-652); test: ELISA on coated Her2-Fc; 0 h in mouse serum
T1 construct: Coated in ELISA
Method: (§1) High binding plates (Greiner, 781061) were immobilized with 2.5 μg/ml hFAP-Fc or 1.2 μg/ml Her2-Fc over night at 4° C. Dilution series of 3 μM to 0.07 pM of fusion proteins with binding specifically to Her2 were incubated in 100% human serum or 100% mouse serum for 24 h at 37° C. Dilution series of 3 µM to 0.2 pM or 1 μM to 0.01 fM of fusion proteins with binding specifically to hFAP were incubated in 100% human serum or 100% mouse serum for 24 h at 37° C. ELISA-plates were washed three times with PBST (PBS+0.1% Tween) and blocked with 3% BSA/0.5% Tween/PBS up to 2 h at room temperature (rt). After preincubation for 0 h or 24 h in the presence of serum the dilution series were incubated on ELISA-plates for up to 1 h at rt. Wells were washed with PBST and incubated with biotinylated anti-ubiquitin-antibody (1:300) for up to 1 h at rt. The binding was visualized with Streptavidin-HRP (1:5.000).
(§2) The fusion proteins comprise the albumin binding domain (referred to as HED) and the targeting moiety.

[2] = target: T1, Her2-Fc; test: ELISA on coated Her2-Fc; 24 h in human serum at 37 C
Method: as §1, §2

[3] = target: T2, Her2 expressed on Sk-Br-3 cells (human, UniProt P04626 23-1255); test: flow cytometry, dilution series on Sk-Br-3 cells
T2 construct: whole, on cells; also called human epidermal growth factor receptor 2
Method: Her2 expressing Sk-Br-3-cells and HEK293-hFAP overexpressing cells were thawed, washed with medium containing FCS, subsequently washed with FACS blocking buffer (PBS/0.1% Sodium Azide/3% FCS) and 100 μl seeded in 96-well round bottom plates with a density of 1×10⁶ cells/ml. Dilution series from 10 µM to 8.6 fM (CID 217781, CID 217787) and a dilution series of 3 µM to 0.2 μM (CID 218466, CID 218467, 218512, CID 218513, CID 218514, CID 218515, CID 218516) were incubated on Her2-expressing Sk-Br-3-cells and dilution series from 1 μM to 0.07 μM of fusion proteins 218690 and 218702 were incubated on hFAP-overexpressing HEK293-cell line for 45 min at 4° C. After centrifugation the supernatants were removed and cells were washed with FACS blocking buffer and 100 μl/well rabbit anti-Strep-Tag antibody (GenScript; A00626), 1:300 diluted in FACS blocking buffer were added. After removal of the primary antibody goat anti-rabbit IgG Alexa Fluor 488 antibody (Invitrogen; A4008) was applied in a 1:1000 dilution in FACS blocking buffer. Flow cytometry measurement was conducted on the Guava easyCyte 5HT device from Merck-Millipore at excitation wavelength 488 nm and emission wavelength 525/30 nm. The * in table 2 refers to a fusion protein with the albumin binding domain as dimer (homo-dimer) and/or the targeting moiety as dimer.

[4] = target: T3, Her2 (immobilised on the SPR chip) (human, UniProt P04626 23-652, limits assumed); test: SPR, Her2 immobilised on the chip, pH 7.3, 1:1 Langmuir fit
T3 construct: construct not described; also called human epidermal growth factor receptor 2
Method: (§3) Recombinant protein A, HSA, MSA or target (either ED-B or Her2) was immobilized on a High Capacity Amine sensor chip (Bruker) after NHS/EDC activation with a Sierra SPR-32 system (Bruker). The chip was equilibrated with SPR running buffer (PBS 0.05%, Tween pH 7.3). Injection of ethanolamine after target immobilization was used to block free NHS groups. To determine the binding of fusion proteins to FAP, the Fc-tagged target was injected with 60 or 30 nM to Protein A coupled spots followed by the injection of fusion proteins.
(§4) Binding proteins were applied to the chip in serial dilutions with a flow rate of 30 μl/min. Upon binding, analyte accumulated on the surface increasing the refractive index. This change in the refractive index was measured in real time and plotted as response or resonance units versus time. The association was performed for 120 seconds and the dissociation for 180 seconds. After each run, the chip surface was regenerated with 30 μl regeneration buffer (10 mM glycine pH 2.0 or pH 1.5) and equilibrated with running buffer. Binding studies were carried out using the Sierra SPR-32 system (Bruker); data evaluation was operated via the Sierra Analyser software, provided by the manufacturer, by the use of the Langmuir 1:1 model (RI=0).

[5] = target: T1, Her2-Fc; test: ELISA on coated Her2-Fc; after 24 h in human serum at 37 C
Method: as §1, §2

[6] = target: T1, Her2-Fc; test: ELISA on coated Her2-Fc; after 24 h in mouse serum at 37 C
Method: as §1, §2

[7] = target: T1, Her2-Fc; test: ELISA on coated Her2-Fc; 24 h in mouse serum at 37 C
Method: as §1, §2

[8] = target: T1, Her2-Fc; test: ELISA on coated Her2-Fc; KD 24 h against KD 0 h, mouse serum
Method: as §1, §2

[9] = target: T4, human serum albumin (human, UniProt P02768 25-609); test: SPR, HSA immobilised on the chip, pH 7.3, 1:1 Langmuir fit
T4 construct: also called HSA
Method: as §3, §4

[10] = target: T1, Her2-Fc; test: ELISA on coated Her2-Fc; KD 24 h against KD 0 h, human serum
Method: as §1, §2

[11] = target: T1, Her2-Fc; test: ELISA on coated Her2-Fc; 0 h in human serum
Method: as §1, §2

T4 sequence (P02768 25-609 limits assumed): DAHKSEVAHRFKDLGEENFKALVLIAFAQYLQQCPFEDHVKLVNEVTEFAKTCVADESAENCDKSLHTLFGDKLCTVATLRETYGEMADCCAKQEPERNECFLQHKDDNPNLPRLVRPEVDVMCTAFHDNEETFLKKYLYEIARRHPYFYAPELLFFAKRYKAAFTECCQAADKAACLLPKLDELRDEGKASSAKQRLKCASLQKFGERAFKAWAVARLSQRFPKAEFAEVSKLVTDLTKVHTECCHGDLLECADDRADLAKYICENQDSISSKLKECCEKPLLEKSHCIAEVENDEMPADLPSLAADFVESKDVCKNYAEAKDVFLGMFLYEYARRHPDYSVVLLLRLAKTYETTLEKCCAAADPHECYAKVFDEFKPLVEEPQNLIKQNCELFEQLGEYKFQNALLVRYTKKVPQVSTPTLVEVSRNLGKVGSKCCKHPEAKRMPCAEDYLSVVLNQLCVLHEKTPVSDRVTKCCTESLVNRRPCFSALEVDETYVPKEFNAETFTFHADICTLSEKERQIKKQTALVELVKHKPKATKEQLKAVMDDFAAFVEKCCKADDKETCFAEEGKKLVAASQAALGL

Kd [1]: 0.18 nM
Kd [2]: 0.28 nM
Kd [3]: 1.47 nM
Kd [4]: 2.5 nM
max binding after 24 h [%] [5]: 96.1%
max binding after 24 h [%] [6]: 108%
Kd [7]: 0.21 nM
increase of KD vs target [fold] [8]: 1.16 fold
Kd [9]: 9.1 nM
increase of KD vs target [fold] [10]: 0.82 fold
Kd [11]: 0.34 nM
B1: fusion protein 218515 (designed binder, not shown: small tags and cut ends)
chain (part 1 of 2): not shown
chain (part 2 of 2): LAEAKVLALKELDKYGISNYYKNLINNAKTIEGVKALKAQIVAA
notes: also called CID 218515

Kd [1]: 0.17 nM
Kd [2]: 0.28 nM
Kd [3]: 2.57 nM
Kd [4]: 2.4 nM
max binding after 24 h [%] [5]: 98.9%
max binding after 24 h [%] [6]: 101%
Kd [7]: 0.2 nM
increase of KD vs target [fold] [8]: 1.21 fold
Kd [9]: 10.9 nM
increase of KD vs target [fold] [10]: 0.71 fold
Kd [11]: 0.39 nM
B2: fusion protein 218516 (designed binder, not shown: small tags and cut ends)
chain (part 1 of 2): not shown
chain (part 2 of 2): B1 chain (part 2 of 2) with L9I, Y15A, K22F, I31V
notes: also called CID 218516
